{"source": "patent US20230312671A1", "about": "(ST JUDE CHILDREN S RESEARCH HOSPITAL, published 2023)", "binders": {"B1": {"name": "biotin-conjugated GRP78-binding peptide (Biotin-Ahx-CTVALPGGYVRVC) (peptide)", "peptide": "{Biotin-Ahx}-CTVALPGGYVRVC", "modifications": "cysteine pairing not given here", "notes": "Synthetic 13-mer from Genscript, detected with Streptavidin PE in flow cytometry; also called biotin-conjugated peptide"}}, "target": "T1, Glucose-regulated-protein 78 (GRP78), cell surface (UniProt P11021 19-654, limits assumed)", "T1 construct": "whole, on cells; The target was endogenous GRP78 on human tumour cell lines; No recombinant GRP78 was used; also called BiP; HSPA5", "T1 sequence (P11021 19-654 limits assumed)": "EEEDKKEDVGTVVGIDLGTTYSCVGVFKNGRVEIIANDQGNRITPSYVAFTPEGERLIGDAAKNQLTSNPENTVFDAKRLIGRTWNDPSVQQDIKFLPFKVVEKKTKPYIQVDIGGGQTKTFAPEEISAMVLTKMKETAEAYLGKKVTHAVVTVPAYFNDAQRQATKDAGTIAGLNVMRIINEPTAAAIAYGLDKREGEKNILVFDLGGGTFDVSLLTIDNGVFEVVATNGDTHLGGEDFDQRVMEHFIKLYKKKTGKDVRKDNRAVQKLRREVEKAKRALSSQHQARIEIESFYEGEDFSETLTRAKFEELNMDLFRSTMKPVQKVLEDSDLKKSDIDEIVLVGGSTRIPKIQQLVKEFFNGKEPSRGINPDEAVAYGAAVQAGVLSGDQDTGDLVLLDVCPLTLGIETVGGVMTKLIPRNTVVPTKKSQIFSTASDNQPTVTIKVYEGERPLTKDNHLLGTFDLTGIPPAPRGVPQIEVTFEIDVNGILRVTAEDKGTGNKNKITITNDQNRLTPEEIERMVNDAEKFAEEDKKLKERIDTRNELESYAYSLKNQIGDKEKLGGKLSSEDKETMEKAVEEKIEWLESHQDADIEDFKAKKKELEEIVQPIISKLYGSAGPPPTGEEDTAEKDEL", "assay": "flow cytometry on AML and solid tumor cell lines, Streptavidin PE detection", "excerpt": "Anti-KDEL antibody for detection of cell surface GRP78 (Abcam, Clone-10C3; Cat. No. ab115638) and Streptavidin PE (BioLegend, San Diego, CA. Cat. No 405204 were used for flow cytometric analysis. A GRP78-binding peptide ([…] (SEQ ID NO: 1)) with an N-terminal Biotin tag (Biotin-Ahx-[…] (SEQ ID NO: 71)) was obtained from Genscript). The following antibodies purchased from BD Biosciences were used for flow cytometry: CD4, CD8, CCR7 FITC, CD45RA APC, CD19 APC, CD19 PE, CD8 APC-H7, CD4-KrO, TIM3 PE-Cy7, LAG3 PE, and PD1 BV605. Recombinant Human ErbB2/Her2 Fc Chimera Protein (R&D Systems, Cat. No 1129-ER) was used to detect HER2 CAR. Half a million Transduced and Non-Transduced T Cells were washed with 1×PBS and the cells were incubated with 3 μL of antibody and Fixable Live Dead aqua stain (Thermo Fisher Scientific, L34965) on ice and protected from light for 30 mins. Cells were washed with 1×PBS+2% FBS. FACS was carried out using FACS Canto II or Lyric (BD Biosciences). The analysis was performed using FlowJo 10.5.3 software (BD Biosciences, San Jose, CA).", "note": "Where no end group is shown, it is not given here. The star is where a group is joined. Biotin = O=C1N[C@H]2[C@H](CS[C@H]2CCCCC(=O)*)N1; Ahx = NCCCCCC(=O)O"}
{"binder": "B1", "values": [{"measurement": "binding result", "value": "binds"}]}
